Experimental findings from PMC8252264, “Candida albicans and Candida glabrata triosephosphate isomerase – a moonlighting protein that can be exposed on the candidal cell surface and bind to human extracellular matrix proteins” (BMC Microbiology, 2021) are described below.

Experiment [1] addresses Candida glabrata triosephosphate isomerase (Tpi1) (Candida glabrata (strain CBS138, ATCC 2001)) (UniProt Q6FRI3). The experiment can be described thus: SPR; Biacore 3000, Tpi1 amine-coupled to a CM5 chip (ca. 150 RU), human ECM proteins 50-750 nM injected; 10 mM HEPES, 150 mM NaCl, 0.005 % P20, pH 7.4; 1:1 Langmuir model, global or local fit.
The target of experiment [2] is Candida albicans triosephosphate isomerase (Tpi1) (Candida albicans (strain ATCC 10231)) (UniProt Q9P940). Described as above.
Experiment [3] has as its target T1, human vitronectin (human, UniProt P04004 20-478, biotin (NHS-biotin) in the whole-cell assay only; sulfo-SDAD on amino groups in the cross-linking experiment).
T1 construct: vitronectin, human; UniProt ID printed for the modelling only (there: vitronectin V65 subunit); No catalogue number printed; also called VTR; source: bought: R&D Systems
The description is as above. The note with it: both partners purified.

The next experiment concerns the target T2, human elastin (human, UniProt P15502 27-786).
T2 construct: elastin, human; No catalogue number printed; a commercial soluble elastin may be a cross-linked or hydrolysed tissue preparation; source: bought: Sigma-Aldrich
T2 sequence (looked up): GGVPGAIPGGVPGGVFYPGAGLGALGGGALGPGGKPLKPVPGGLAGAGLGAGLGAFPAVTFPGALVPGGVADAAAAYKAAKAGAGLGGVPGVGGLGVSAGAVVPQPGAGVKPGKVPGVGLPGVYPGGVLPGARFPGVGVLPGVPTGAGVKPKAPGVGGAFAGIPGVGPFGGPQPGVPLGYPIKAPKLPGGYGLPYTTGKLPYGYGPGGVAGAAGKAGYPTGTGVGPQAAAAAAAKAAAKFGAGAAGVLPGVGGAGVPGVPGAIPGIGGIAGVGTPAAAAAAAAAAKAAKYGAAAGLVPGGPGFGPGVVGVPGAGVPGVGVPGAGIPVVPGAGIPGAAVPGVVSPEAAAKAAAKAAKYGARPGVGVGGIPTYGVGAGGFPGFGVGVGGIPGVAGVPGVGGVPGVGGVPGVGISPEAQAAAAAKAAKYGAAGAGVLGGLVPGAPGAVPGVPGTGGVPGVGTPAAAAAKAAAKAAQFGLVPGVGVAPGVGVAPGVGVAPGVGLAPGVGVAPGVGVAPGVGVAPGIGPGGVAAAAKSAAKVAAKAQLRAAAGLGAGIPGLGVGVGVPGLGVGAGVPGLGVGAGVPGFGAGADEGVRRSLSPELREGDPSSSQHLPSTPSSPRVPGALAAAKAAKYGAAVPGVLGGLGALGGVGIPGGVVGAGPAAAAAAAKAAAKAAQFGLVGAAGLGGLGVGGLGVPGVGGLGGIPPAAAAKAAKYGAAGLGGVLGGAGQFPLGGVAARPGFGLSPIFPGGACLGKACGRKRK
Described as above. The note with it: both partners purified.

The next experiment concerns the target human collagen (human). The experiment can be described thus: ELISA; microplate-based protein-binding assay: human ECM proteins coated (3 pmoles per well, MaxiSorp, overnight 4 °C), biotin-labelled Tpi1 10-800 nM in PBS, 1.5 h at 37 °C, SA-HRP/TMB detection; apparent KD.
For experiment [4], the target named is human ECM proteins tested in the microplate-based protein-binding assay (Fig. 5). Described as above.
Experiment [5] addresses T1, human vitronectin. Described as above. The note with it: both partners purified.

T1 sequence (P04004 20-478): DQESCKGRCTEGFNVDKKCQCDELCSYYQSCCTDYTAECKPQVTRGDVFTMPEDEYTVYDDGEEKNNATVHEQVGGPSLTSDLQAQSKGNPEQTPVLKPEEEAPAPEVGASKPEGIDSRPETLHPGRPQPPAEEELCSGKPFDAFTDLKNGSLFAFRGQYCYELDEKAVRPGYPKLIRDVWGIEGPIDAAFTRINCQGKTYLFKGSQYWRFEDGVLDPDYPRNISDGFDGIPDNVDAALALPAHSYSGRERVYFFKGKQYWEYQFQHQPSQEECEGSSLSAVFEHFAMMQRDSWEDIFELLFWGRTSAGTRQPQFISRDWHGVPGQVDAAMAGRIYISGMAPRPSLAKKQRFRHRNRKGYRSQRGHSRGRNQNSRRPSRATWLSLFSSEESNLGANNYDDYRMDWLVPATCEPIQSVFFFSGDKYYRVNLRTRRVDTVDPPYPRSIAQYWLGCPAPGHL

As usually defined, the koff is the first-order rate constant of dissociation. The low end stands for slow dissociation, the high end for fast dissociation. What is called kon is the second-order rate constant of association. A lower kon goes with slow association. human collagen (natural protein): in experiment [1], the Kd was 214 nM, the koff was determined as 0.00308 s⁻¹ and the on-rate (kon) is 14400 M⁻¹ s⁻¹. In experiment [2], this molecule displayed a Kd of 109 nM, a koff of 0.00199 s⁻¹ and a kon of 18200 M⁻¹ s⁻¹.
“human fibronectin (from UniProt P02751 32-2477) (natural protein)”: in experiment [1], the Kd amounted to 730 nM, the off-rate constant (koff) worked out at 0.0473 s⁻¹ and the kon stood at 64800 M⁻¹ s⁻¹. In addition, in experiment [2], the Kd worked out at 326 nM, the off-rate (koff) amounted to 0.0105 s⁻¹ and the on-rate constant (kon) amounted to 32200 M⁻¹ s⁻¹.
Consider human laminin (complex), for which, in experiment [1], the Kd was determined as 253 nM, the koff worked out at 0.00339 s⁻¹ and the kon was 13400 M⁻¹ s⁻¹. In addition, in experiment [2], the Kd came out at 739 nM, the koff was determined as 0.0327 s⁻¹ and the on-rate (kon) worked out at 44200 M⁻¹ s⁻¹.

B1: Candida glabrata triosephosphate isomerase (Tpi1) (enzyme)
chain: MARTFFVGGNFKLNGTKKSIKEIVDRLNTASLPENVEVVICPPATYLDYTVSLVSKKQVTVGGQNTYTKASGAYTGENSVDQLKDVGAKWVILGHSERRTYFHEDDKIVAEKTKFALDQGLGVILCIGETLEEKKAGVTLKVVERQLDAVIAEVKDWTNVVIAYEPVWAIGTGLAATAEDAQDIHHSIRSYLAEKLGKDTAEKTRILYGGSANGANAGTFKDKADVDGFLVGGASLKPEFVDIINSRN
modifications: biotin (NHS-biotin) in the microplate assay; unlabelled in SPR and on cells
notes: triosephosphate isomerase Tpi1 of Candida glabrata, native protein isolated from the cell wall; identifier not given; Native protein, enzymatically active, no attached sugars found; also called C. glabrata Tpi1; source: also endogenous, on live C. glabrata cells
With B1, the Kd is 168 nM with human vitronectin [3], 20.1 nM with human elastin, 1000 nM with human collagen (human) and 100 nM in experiment [4]. For the same molecule, the values for the koff with human vitronectin [3] and in the experiment with human elastin were 0.0031 s⁻¹ and 0.00191 s⁻¹, respectively. In addition, the kon with human vitronectin [3] is 18400 M⁻¹ s⁻¹; with human elastin, 95100 M⁻¹ s⁻¹.

B2: Candida albicans triosephosphate isomerase (Tpi1) (enzyme)
chain: MARQFFVGGNFKANGTKQQITSIIDNLNKADLPKDVEVVICPPALYLGLAVEQNKQPTVAIGAQNVFDKSCGAFTGETCASQILDVGASWTLTGHSERRTIIKESDEFIAEKTKFALDTGVKVILCIGETLEERKGGVTLDVCARQLDAVSKIVSDWSNIVVAYEPVWAIGTGLAATPEDAEETHKGIRAHLAKSIGAEQAEKTRILYGGSVNGKNAKDFKDKANVDGFLVGGASLKPEFVDIIKSRL
modifications: biotin (NHS-biotin) in the microplate assays; unlabelled in SPR, cross-linking and on cells
notes: triosephosphate isomerase Tpi1 of Candida albicans, native protein isolated from the cell wall; the UniProt ID is printed for the molecular modelling; Native protein, enzymatically active, no attached sugars found; The strain used (ATCC 10231) may differ from the strain of the UniProt entry; Modelled as a dimer, oligomeric state not measured here; also called C. albicans Tpi1; source: also …
In the experiment with human vitronectin [3], B2 gave a Kd of 86 nM, an off-rate constant (koff) of 0.00877 s⁻¹ and a kon of 102000 M⁻¹ s⁻¹. Besides, in the experiment with human elastin, the Kd was 821 nM, the koff stood at 0.0382 s⁻¹ and the kon worked out at 46500 M⁻¹ s⁻¹. In addition, the Kd with human vitronectin [5] was roughly 10 nM.
